Results on eight sequences are retold here after the supplement of paper PMC10065799, “High-throughput profiling of sequence recognition by tyrosine kinases and SH2 domains using bacterial peptide display” (eLife, 2023).

One data set addresses c-Src SH2. The data set is described as follows: SH2 binding enrichment of the phosphorylated peptide, bacterial display (enrichment ratio); higher = better substrate or ligand; peptides without Tyr show the background.
Another data set addresses Grb2 SH2 (UniProt P62993). Described as above.
The next data set addresses SHP2-C SH2. The description is as above.
Another data set deals with EPHB1 (UniProt P54762). The data set is described as follows: phosphorylation enrichment, bacterial display (enrichment ratio); higher = better substrate or ligand; peptides without Tyr show the background.
For the next data set, the target named is Fes (UniProt P07332). The data set is described as above.
The target of a further data set is Fyn (UniProt P06241). The description is as above.
A further data set deals with FGFR1 (UniProt P11362). The data set is described as above.
A further data set addresses Hck (UniProt P08631). The description is as above.
The next data set concerns the target FGFR3 (UniProt P22607). The data set is described as above.
A further data set has as its system c-Src. The data set is described as above.
For the next data set, the target named is EPHB2 (UniProt P29323). The description is as above.
Another data set concerns the target MERTK (UniProt Q12866). The data set is described as above.
For another data set, the system named is c-Abl (mouse). Described as above.
The next data set concerns AncSZ. The description is as above.
The test system of the next data set is Fer (mouse). The data set is described as above.
Another data set has as its target Jak2 (UniProt O60674). Described as above.
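Wherever SH2 binding enrichment of the phosphorylated peptide, bacterial display is given: peptide library displayed on the E. coli surface as eCPX fusions, selected cells deep-sequenced, score is each peptide's frequency after selection divided by its frequency in the input.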
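Wherever phosphorylation enrichment, bacterial display is given: 11-residue human phosphosite peptides and single-mutation variants displayed on the E. coli surface, counted by deep sequencing, each peptide's frequency after selection divided by its frequency in the unselected input library; frequency after pTyr selection over input frequency; kinase dosed for 20-30% of maximal phosphorylation in three min.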

FGFR3, sequence (P22607 whole entry, looked up): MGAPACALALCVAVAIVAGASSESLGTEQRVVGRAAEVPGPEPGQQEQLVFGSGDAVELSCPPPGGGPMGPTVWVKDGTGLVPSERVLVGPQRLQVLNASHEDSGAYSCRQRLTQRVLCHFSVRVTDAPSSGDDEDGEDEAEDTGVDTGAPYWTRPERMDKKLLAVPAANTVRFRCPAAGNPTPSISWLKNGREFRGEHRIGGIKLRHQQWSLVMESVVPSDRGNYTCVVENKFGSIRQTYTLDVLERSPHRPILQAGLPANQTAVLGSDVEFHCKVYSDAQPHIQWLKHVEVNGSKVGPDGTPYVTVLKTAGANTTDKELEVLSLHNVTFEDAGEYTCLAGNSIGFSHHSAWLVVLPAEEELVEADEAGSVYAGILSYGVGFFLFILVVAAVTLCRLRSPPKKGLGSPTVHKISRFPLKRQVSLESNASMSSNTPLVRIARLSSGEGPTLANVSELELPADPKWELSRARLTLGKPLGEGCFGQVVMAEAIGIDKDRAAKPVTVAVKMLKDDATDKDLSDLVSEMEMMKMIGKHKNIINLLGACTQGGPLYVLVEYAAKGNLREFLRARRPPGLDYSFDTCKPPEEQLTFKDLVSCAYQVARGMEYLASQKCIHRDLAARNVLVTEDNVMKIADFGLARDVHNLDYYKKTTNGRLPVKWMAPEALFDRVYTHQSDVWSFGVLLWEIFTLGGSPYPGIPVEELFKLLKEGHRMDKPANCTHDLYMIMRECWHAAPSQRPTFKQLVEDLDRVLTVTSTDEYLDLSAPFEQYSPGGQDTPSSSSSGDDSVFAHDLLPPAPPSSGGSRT
EPHB2, sequence (P29323 whole entry, looked up): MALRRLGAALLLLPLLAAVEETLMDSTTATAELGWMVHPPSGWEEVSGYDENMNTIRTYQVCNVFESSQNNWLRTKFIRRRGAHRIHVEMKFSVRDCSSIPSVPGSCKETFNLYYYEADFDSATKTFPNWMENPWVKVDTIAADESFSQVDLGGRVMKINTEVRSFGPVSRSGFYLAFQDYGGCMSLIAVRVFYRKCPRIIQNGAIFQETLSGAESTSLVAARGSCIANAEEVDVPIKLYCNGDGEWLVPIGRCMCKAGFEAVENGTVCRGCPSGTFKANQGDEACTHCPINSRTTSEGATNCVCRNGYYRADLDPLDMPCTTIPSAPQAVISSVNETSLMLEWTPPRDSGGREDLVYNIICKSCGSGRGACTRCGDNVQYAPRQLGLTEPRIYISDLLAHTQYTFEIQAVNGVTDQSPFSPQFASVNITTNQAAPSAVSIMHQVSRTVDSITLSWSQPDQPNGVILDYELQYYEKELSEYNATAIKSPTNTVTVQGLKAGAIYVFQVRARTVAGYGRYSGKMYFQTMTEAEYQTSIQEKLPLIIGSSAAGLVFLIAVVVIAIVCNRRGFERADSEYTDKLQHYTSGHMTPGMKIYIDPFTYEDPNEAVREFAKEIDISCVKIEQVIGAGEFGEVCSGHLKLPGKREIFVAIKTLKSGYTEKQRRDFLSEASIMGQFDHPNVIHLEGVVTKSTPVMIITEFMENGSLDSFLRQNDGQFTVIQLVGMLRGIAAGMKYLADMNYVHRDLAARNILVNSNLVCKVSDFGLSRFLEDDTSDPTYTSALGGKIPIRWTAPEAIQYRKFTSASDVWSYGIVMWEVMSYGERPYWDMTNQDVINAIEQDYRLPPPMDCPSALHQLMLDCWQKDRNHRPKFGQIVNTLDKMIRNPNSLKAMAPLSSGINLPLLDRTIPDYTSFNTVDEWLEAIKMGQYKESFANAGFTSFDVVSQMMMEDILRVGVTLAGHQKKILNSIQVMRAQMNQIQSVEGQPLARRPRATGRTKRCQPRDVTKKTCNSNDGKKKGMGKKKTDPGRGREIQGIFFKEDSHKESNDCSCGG
Fes, sequence (P07332 whole entry, looked up): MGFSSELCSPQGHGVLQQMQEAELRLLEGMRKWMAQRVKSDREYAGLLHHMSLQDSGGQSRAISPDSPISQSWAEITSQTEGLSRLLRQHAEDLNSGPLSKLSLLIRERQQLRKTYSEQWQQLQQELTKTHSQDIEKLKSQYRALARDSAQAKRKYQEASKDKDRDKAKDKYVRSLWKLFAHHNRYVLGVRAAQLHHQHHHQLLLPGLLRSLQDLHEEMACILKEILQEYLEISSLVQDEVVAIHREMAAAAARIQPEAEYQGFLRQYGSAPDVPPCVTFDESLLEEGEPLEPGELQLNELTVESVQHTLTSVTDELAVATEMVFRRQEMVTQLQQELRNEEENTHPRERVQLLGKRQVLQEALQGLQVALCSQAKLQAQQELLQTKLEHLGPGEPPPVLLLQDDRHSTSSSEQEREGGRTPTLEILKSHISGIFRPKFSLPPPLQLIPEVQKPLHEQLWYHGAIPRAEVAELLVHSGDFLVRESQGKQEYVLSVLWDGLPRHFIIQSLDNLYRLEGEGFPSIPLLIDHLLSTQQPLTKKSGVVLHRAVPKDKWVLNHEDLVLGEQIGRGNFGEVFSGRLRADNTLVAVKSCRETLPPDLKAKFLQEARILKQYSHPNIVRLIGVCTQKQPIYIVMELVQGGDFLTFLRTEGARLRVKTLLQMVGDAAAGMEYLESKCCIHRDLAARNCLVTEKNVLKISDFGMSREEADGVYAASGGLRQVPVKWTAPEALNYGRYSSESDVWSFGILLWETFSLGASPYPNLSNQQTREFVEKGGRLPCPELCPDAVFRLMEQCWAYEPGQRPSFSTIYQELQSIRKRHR
Fyn, sequence (P06241 whole entry, looked up): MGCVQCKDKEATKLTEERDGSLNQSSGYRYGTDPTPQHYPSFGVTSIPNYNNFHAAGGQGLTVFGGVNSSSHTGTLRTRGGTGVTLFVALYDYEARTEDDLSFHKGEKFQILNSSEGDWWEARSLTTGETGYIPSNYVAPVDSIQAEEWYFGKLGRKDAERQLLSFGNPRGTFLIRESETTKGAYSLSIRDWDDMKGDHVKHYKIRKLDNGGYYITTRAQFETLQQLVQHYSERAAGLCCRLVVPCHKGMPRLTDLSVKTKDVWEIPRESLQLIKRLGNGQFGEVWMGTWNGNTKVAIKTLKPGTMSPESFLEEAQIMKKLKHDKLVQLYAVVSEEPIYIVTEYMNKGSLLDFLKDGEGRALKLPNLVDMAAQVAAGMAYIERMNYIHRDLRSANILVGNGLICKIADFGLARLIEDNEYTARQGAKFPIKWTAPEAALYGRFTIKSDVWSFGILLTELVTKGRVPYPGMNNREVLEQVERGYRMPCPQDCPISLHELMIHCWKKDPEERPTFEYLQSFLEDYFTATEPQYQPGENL
MERTK, sequence (Q12866 whole entry, looked up): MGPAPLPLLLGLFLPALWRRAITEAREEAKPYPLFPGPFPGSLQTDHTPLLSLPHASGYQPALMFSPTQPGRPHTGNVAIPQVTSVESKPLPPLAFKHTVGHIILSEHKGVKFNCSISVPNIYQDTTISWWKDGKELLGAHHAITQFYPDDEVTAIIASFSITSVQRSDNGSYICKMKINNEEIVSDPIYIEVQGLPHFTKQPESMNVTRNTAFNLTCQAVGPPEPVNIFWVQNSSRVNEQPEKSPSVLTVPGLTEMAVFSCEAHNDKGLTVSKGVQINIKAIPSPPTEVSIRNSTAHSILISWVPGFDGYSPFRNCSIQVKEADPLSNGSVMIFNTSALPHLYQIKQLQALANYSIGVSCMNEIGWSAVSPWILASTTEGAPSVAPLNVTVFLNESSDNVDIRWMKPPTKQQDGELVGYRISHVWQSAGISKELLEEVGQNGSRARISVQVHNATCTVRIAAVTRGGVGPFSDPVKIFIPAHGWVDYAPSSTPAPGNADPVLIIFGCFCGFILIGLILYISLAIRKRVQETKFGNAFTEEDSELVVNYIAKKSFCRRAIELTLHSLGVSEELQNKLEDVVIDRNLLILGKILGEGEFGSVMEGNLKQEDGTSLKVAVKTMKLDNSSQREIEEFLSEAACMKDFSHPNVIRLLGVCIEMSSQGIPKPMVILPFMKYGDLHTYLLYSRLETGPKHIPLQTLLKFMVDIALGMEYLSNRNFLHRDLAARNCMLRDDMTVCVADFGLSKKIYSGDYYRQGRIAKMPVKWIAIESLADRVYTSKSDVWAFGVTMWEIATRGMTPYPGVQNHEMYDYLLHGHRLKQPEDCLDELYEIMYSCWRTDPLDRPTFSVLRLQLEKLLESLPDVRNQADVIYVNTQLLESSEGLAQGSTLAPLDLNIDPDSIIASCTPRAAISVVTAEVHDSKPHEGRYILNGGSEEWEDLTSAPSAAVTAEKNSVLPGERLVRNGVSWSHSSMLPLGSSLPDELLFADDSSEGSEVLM
Hck, sequence (P08631 whole entry, looked up): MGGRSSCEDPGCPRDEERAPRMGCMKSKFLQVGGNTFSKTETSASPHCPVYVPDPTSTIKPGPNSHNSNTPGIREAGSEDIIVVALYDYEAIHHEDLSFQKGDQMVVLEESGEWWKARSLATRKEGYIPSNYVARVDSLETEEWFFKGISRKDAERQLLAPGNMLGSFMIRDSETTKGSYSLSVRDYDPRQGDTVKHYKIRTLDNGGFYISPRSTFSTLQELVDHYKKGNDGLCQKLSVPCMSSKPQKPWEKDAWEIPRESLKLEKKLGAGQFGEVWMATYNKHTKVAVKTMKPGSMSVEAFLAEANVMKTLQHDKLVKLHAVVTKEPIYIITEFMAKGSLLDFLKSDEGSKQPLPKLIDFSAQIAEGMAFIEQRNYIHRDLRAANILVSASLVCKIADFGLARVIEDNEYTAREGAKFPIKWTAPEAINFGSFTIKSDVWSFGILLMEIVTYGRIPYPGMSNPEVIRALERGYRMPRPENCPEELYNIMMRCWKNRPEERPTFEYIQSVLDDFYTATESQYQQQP
Grb2 SH2, sequence (P62993 whole entry, looked up): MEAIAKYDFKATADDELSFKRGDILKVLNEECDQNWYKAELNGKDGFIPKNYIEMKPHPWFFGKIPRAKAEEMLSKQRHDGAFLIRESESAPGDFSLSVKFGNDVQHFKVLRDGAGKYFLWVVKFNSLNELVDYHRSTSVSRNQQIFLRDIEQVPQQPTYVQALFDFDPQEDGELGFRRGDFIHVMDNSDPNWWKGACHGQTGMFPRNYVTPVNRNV

Consider PDMHSYVVRYN [GRIN2D_Y732_M733V], for which the SH2 binding enrichment in the data set with c-Src SH2 was 0.544; in the data set with Grb2 SH2, 0.812; with SHP2-C SH2, 0.825. The phosphorylation enrichment with EPHB1 was determined as 0.787; in the data set with Fes, 1.13; in the data set with Fyn it was 0.554; with FGFR1, 0.56; in the data set with Hck, 0.721; with FGFR3, 0.844. Further, the phosphorylation enrichment with c-Src was 0.603; with EPHB2 it was 0.723; in the data set with MERTK, 0.413; with c-Abl (mouse), 0.694; in the data set with AncSZ, 1.13; in the data set on Fer (mouse) it was 0.434. Moreover, in the data set with Jak2, the phosphorylation enrichment came out at 1.04.

Consider PFDAEYGGGGG [AKR1B10_Y316_N313D], for which the figures for the SH2 binding enrichment in the data set with c-Src SH2, with Grb2 SH2 and with SHP2-C SH2 were 0.378, 0.747 and 0.798, respectively. Besides, the phosphorylation enrichment with EPHB1 amounted to 0.843; with Fes, 1.5; in the data set with Fyn it was 1.13; with FGFR1, 1.16; in the data set with Hck it was 1.14; with FGFR3, 1.09. Moreover, the phosphorylation enrichment worked out at 0.918 with c-Src; 1.48 with EPHB2; 0.783 with MERTK; 1.31 in the data set on c-Abl (mouse); 1.81 with AncSZ; 0.784 in the data set on Fer (mouse). The phosphorylation enrichment in the data set with Jak2 came to 1.66.

Take NFGTNYRVGSS [CPO_Y278_K273N_YF]: the SH2 binding enrichment with c-Src SH2 stood at 0.418; with Grb2 SH2, 0.88; with SHP2-C SH2, 0.634. Besides, the phosphorylation enrichment was found to be 0.417 with EPHB1; 0.716 with Fes; 0.43 in the data set with Fyn; 0.508 in the data set with FGFR1; 0.482 with Hck; 0.424 in the data set with FGFR3. The phosphorylation enrichment amounted to 0.442 in the data set with c-Src; 0.515 in the data set with EPHB2; 0.42 with MERTK; 0.525 in the data set on c-Abl (mouse); 0.602 in the data set with AncSZ; 0.429 with Fer (mouse). Further, the phosphorylation enrichment with Jak2 stood at 0.534.

Take EKEQNYDLTQV [ECD_Y448_E452Q]: the SH2 binding enrichment in the data set with c-Src SH2 worked out at 0.486; in the data set with Grb2 SH2, 0.79; with SHP2-C SH2, 0.508. The phosphorylation enrichment was 0.513 in the data set with EPHB1; 1.33 with Fes; 0.557 with Fyn; 0.612 with FGFR1; 0.528 with Hck; 0.782 with FGFR3. The phosphorylation enrichment was 0.506 with c-Src; 0.612 with EPHB2; 0.569 with MERTK; 1.42 in the data set on c-Abl (mouse); 1.24 in the data set with AncSZ; 1.17 in the data set on Fer (mouse). Also, the phosphorylation enrichment with Jak2 is 1.07.

For the sequence DGMADCSDPSY [CDC5L_Y459_Y459C], the SH2 binding enrichment in the data set with c-Src SH2 was 0.615; with Grb2 SH2, 1.22; with SHP2-C SH2, 0.629. The phosphorylation enrichment with EPHB1 was found to be 0.607; with Fes it was 1.18; with Fyn, 0.492; in the data set with FGFR1 it was 0.465; in the data set with Hck, 0.543; in the data set with FGFR3, 0.754. In addition, the phosphorylation enrichment in the data set on c-Src stood at 0.425; with EPHB2 it was 0.595; with MERTK, 0.412; with c-Abl (mouse) it was 0.755; in the data set on AncSZ, 1.12; in the data set with Fer (mouse), 0.52. In addition, the phosphorylation enrichment with Jak2 is 1.06.

In the case of LEAVSYSSPYA [RNLS_Y190_R193P], the SH2 binding enrichment with c-Src SH2 came to 2.86; with Grb2 SH2, 0.826; with SHP2-C SH2, 1.84. Also, the phosphorylation enrichment in the data set with EPHB1 was determined as 0.818; with Fes, 1.03; with Fyn, 0.864; in the data set with FGFR1 it was 0.697; with Hck it was 1.07; with FGFR3 it was 0.987. Further, the phosphorylation enrichment came out at 1.12 in the data set with c-Src; 0.936 in the data set with EPHB2; 0.627 in the data set with MERTK; 2.02 with c-Abl (mouse); 1.81 in the data set with AncSZ; 0.714 in the data set on Fer (mouse). Further, the phosphorylation enrichment with Jak2 stood at 1.51.

Turning to GRDVIYKGFED [NFU1_Y194_G190R], the SH2 binding enrichment with c-Src SH2 was determined as 0.51; in the data set with Grb2 SH2, 0.696; in the data set with SHP2-C SH2, 0.769. In addition, the phosphorylation enrichment in the data set with EPHB1 came to 0.528; with Fes, 1; in the data set with Fyn, 2.94; with FGFR1, 0.468; with Hck it was 0.96; with FGFR3 it was 0.539. Further, the phosphorylation enrichment with c-Src stood at 1.97; with EPHB2 it was 0.401; with MERTK, 0.391; in the data set with c-Abl (mouse), 0.561; in the data set on AncSZ, 0.77; in the data set on Fer (mouse) it was 0.426. Besides, the phosphorylation enrichment in the data set with Jak2 came out at 0.767.

Take ESKKHYGYSLY [ANXA3_Y295_F291S]: the SH2 binding enrichment is 0.913 with c-Src SH2, 0.704 in the data set with Grb2 SH2 and 0.963 with SHP2-C SH2. In addition, the phosphorylation enrichment with EPHB1 stood at 0.413; in the data set with Fes, 0.593; with Fyn it was 0.454; with FGFR1, 0.408; with Hck it was 0.646; with FGFR3 it was 0.474. The phosphorylation enrichment turned out to be 0.541 in the data set on c-Src; 0.455 with EPHB2; 0.486 with MERTK; 0.435 in the data set with c-Abl (mouse); 0.595 with AncSZ; 0.453 in the data set with Fer (mouse). Further, the phosphorylation enrichment with Jak2 turned out to be 0.551.
